{"source": "paper PMC3806657", "about": "(Molecular Biology of the Cell, 2013)", "molecular_target": "T1, 6His-tagged GEF domain of Gef2 (aa 211-600) (S. pombe, UniProt Q09733 211-600)", "T1 sequence": "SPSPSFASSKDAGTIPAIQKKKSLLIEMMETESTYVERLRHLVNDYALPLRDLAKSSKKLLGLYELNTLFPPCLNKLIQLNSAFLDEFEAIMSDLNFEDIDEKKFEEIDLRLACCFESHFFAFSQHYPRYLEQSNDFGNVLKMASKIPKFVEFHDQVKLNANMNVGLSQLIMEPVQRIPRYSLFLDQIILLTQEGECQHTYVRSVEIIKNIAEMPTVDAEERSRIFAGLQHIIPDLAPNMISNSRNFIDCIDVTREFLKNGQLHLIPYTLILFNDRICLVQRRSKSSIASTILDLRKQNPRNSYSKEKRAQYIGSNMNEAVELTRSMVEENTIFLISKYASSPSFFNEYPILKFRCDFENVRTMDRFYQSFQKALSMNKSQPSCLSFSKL", "assay": "pull-down", "data": [{"binder": "GST-Rho5 (enzyme) MTTELRRKLVIVGDGACGKTCLLIVFSKGTFPEVYVPTVFENYVADVEVDGRHIELALWDTAGQEDYDRLRPLSYPDSHVVLICFSVDAPESLDNVQEKWISEVLHFCSNLPILLVGCKVDLRNDPKTIEELSKTSQKPITFEEGQVVAQKIGAYKYLECSAKLNEGVNEVFETAARASMLKFKPASVPKTKKKKHCILL", "values": [{"measurement": "binding result", "value": "binds"}]}, {"binder": "GST-Rho4 (enzyme) MSAFKKSGSKSETSKKLVVVGDGGCGKTCLLIVFSSGTFPERYVPTVFENYITDITYGPNSKVIELALWDTAGQEEYDRLRPLSYPNSNVILLCFSIDCPASLNNVTEKWYPEVQHFCPRTPIVLVGLKADLRKDRNATEVLRTQGLTPVTYQQAQSVALSMNAPYVECSAKENTGVNEVFQLAVGLTIKKSFSFSKKSCVIL", "values": [{"measurement": "binding result", "value": "binds"}]}, {"binder": "GST-Rho1 (enzyme) MATELRRKLVIVGDGACGKTCLLIVFSKGTFPEVYVPTVFENYVADVEVDGRHVELALWDTAGQEDYDRLRPLSYPDSHVILICFAVDSPDSLDNVQEKWISEVLHFCSSLPILLVACKADLRNDPKIIEELSKTNQHPVTTEEGQAVAQKIGAYKYLECSAKTNEGVREVFESATRAAMLKHKPKVKPSSGTKKKKRCILL", "values": [{"measurement": "binding result", "value": "binds"}]}]}
